Experimental data from PMC6345439, “INDETERMINATE-DOMAIN 4 (IDD4) coordinates immune responses with plant-growth in Arabidopsis thaliana”.

Assays:
[1] = molecular target: T1, MBP-IDD4-DD (phospho-mimic, truncated) (Arabidopsis thaliana, UniProt Q8GYC1 20-219, S73D;T130D); experiment: EMSA; LightShift Chemiluminescent EMSA kit instructions; 20 fmol biotinylated DNA, 1 ug protein; buffer, salt, pH and temperature not stated; details: protein: recombinant; tags: MBP; label: 3' biotin; blunt
T1 sequence: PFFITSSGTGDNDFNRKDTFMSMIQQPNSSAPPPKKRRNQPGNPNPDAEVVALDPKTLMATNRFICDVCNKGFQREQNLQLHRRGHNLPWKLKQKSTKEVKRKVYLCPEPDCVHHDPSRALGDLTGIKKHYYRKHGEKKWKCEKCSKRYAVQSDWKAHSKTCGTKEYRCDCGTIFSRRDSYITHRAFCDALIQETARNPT

[2] = molecular target: T1, MBP-IDD4-DD (phospho-mimic, truncated); experiment: competition; unlabeled competitor up to 0.5 uM (100x excess) against N1; LightShift Chemiluminescent EMSA kit instructions; 20 fmol biotinylated DNA, 1 ug protein; buffer, salt, pH and temperature not stated; details: protein: recombinant; tags: MBP; blunt

B1: SAGT1 promoter ID1 probe (395s/395as) (dsDNA)
DNA 1: ACATGGTAGACAAAATAATGAAGCCAAAATTAATA
DNA 2: TATTAATTTTGGCTTCATTATTTTGTCTACCATGT
Q: Does B1 bind [1]?
A: binds

B2: SAGT1 promoter ID1 competitor, unlabeled (spe) (dsDNA)
DNA 1: ACATGGTAGACAAAATAATGAAGCCAAAATTAATA
DNA 2: TATTAATTTTGGCTTCATTATTTTGTCTACCATGT
Q: Does B2 bind [2]?
A: binds
